Experiment [1] addresses HLA-A*80:01. Kind of experiment: IEDB peptide-MHC binding, purified MHC/direct/fluorescence; filed as Kd, often an IC50 or EC50 that approximates it; ≥ and ≤ were set here for values at or beyond the usual limits of such assays.
In experiment [2] the target is HLA-B*15:01. The experiment is described as above.
In experiment [3] the target is HLA-B*15:02. The experiment is described as above.
The target in experiment [4] is HLA-B*46:01. The description is as above.
In experiment [5] the target is HLA-A*01:01. The description is as above.
The target of experiment [6] is HLA-A*02:01. The description is as above.
For experiment [7], the target named is HLA-A*02:11. Described as above. The conditions noted are these: source organism: Orthohantavirus tulaense.
For experiment [8], the target named is HLA-A*02:12. The description is as above. The conditions noted are these: source organism: Orthohantavirus tulaense.
Experiment [9] deals with HLA-A*03:01. The experiment is described as above.
Experiment [10] concerns the target HLA-A*23:01. Described as above. The conditions noted are these: source organism: Orthohantavirus tulaense.
In experiment [11] the target is HLA-A*24:03. The description is as above.
Experiment [12] addresses HLA-A*29:02. The description is as above. The conditions noted are these: source organism: Orthohantavirus negraense.
Experiment [13] deals with HLA-A*68:02. The description is as above. The conditions noted are these: source organism: Orthohantavirus tulaense.
In experiment [14] the target is HLA-B*07:02. The description is as above.
The target of experiment [15] is HLA-B*08:01. The experiment is described as above.
Experiment [16] concerns the target HLA-B*18:01. The experiment is described as above. The conditions noted are these: source organism: Orthohantavirus negraense.
For experiment [17], the target named is HLA-B*27:05. The experiment is described as above.
In experiment [18] the target is HLA-B*40:01. Described as above.
The target in experiment [19] is HLA-B*48:01. The experiment is described as above. The conditions noted are these: source organism: Orthohantavirus negraense.
In experiment [20] the target is HLA-C*12:03. The description is as above.
The target of experiment [21] is HLA-A*26:01. Description: IEDB peptide-MHC binding, purified MHC/competitive/fluorescence; filed as Kd, often an IC50 or EC50 that approximates it; ≥ and ≤ were set here for values at or beyond the usual limits of such assays. The conditions noted are these: source organism: Orthohantavirus tulaense.
The target of experiment [22] is HLA-A*69:01. The experiment is described as above. The conditions noted are these: source organism: Orthohantavirus tulaense.
For experiment [23], the target named is HLA-B*27:03. Described as above. The conditions noted are these: source organism: Orthohantavirus tulaense.
The target in experiment [24] is HLA-B*39:01. Described as above. The conditions noted are these: source organism: Orthohantavirus tulaense.
For experiment [25], the target named is HLA-B*51:01. Described as above. The conditions noted are these: source organism: Orthohantavirus tulaense.
The target of experiment [26] is HLA-B*15:42. The description is as above.
Experiment [27] concerns the target HLA-B*27:20. The experiment is described as above.
The target of experiment [28] is HLA-B*45:06. Described as above.
Experiment [29] concerns the target HLA-B*83:01. Described as above.
The target in experiment [30] is HLA-A*11:01. Kind of experiment: IEDB peptide-MHC binding, purified MHC/direct/fluorescence; filed as Kd, often an IC50 or EC50 that approximates it; ≥ and ≤ were set here for values at or beyond the usual limits of such assays.
The target in experiment [31] is HLA-A*26:01. The description is as above.
Experiment [32] has as its target HLA-A*31:01. The experiment is described as above.
The target of experiment [33] is HLA-A*69:01. The description is as above.
Experiment [34] deals with HLA-B*35:01. Described as above.
Experiment [35] concerns the target HLA-B*44:02. The description is as above.
Experiment [36] has as its target HLA-B*58:01. Described as above.
In experiment [37] the target is HLA-A*02:50. Description: IEDB peptide-MHC binding, purified MHC/competitive/fluorescence; filed as Kd, often an IC50 or EC50 that approximates it; ≥ and ≤ were set here for values at or beyond the usual limits of such assays. The conditions noted are these: source organism: Cryptosporidium parvum.
In experiment [38] the target is HLA-A*02:19. Description: IEDB peptide-MHC binding, purified MHC/direct/fluorescence; filed as Kd, often an IC50 or EC50 that approximates it; ≥ and ≤ were set here for values at or beyond the usual limits of such assays. The conditions noted are these: source organism: Yersinia enterocolitica subsp. enterocolitica 8081.
Experiment [39] deals with HLA-C*05:01. The experiment is described as above. The conditions noted are these: source organism: human gammaherpesvirus 4.
The target of experiment [40] is HLA-C*08:02. Described as above. The conditions noted are these: source organism: human gammaherpesvirus 4.
[41] abbreviates: source organism: Orthohantavirus hantanense.
The mark [42] stands for this setting: source organism: Orthohantavirus negraense.
Where [43] appears, read: source organism: Orthohantavirus tulaense.
Where [44] appears, read: source organism: human gammaherpesvirus 4.
The mark [45] stands for this setting: source organism: Human herpesvirus 4 strain B95-8.
Setting [46] is: source organism: Cryptosporidium parvum.
Setting [47] is: source organism: Yersinia pestis Nepal516.
Setting [48] is: source organism: Yersinia pestis.

Among the data in the Immune Epitope Database (IEDB) are Kd values, retold here.

For orientation: Kd means the constant that tells how readily two partners part at equilibrium. Low values mean tighter binding, high ones weaker binding. On to HSEEGSRAY, for which the equilibrium dissociation constant (Kd) in experiment [1] (source organism: Yellow fever virus) is no less than 20 µM.

Regarding LQYAIRSVF, the Kd was 0.004 µM in [2] (setting [41]), 0.008 µM in [3] (source organism: Hantaan virus Q32) and 1.95 µM in experiment [4] (setting [41]).

For the sequence MSRKLHRYI, the Kd in experiment [5] (setting [42]), in [6] (setting [42]), in experiment [7], in experiment [8], in [9] (setting [43]) and in experiment [10] was no less than 20 µM throughout. The Kd in [11] (setting [43]) is no less than 20 µM; in experiment [12] it was no less than 20 µM; in experiment [13] it was no less than 20 µM; in experiment [14] (setting [42]), no less than 20 µM; in experiment [15] (setting [42]), 4.71 µM; in experiment [2] (setting [42]), no less than 20 µM. For the same sequence, the Kd is no less than 20 µM in experiment [16]; no less than 20 µM in experiment [17] (setting [42]); no less than 20 µM in experiment [18] (setting [42]); no less than 20 µM in experiment [4] (setting [42]); no less than 20 µM in experiment [19]; 0.441 µM in [20] (setting [43]). In addition, the Kd in experiment [21], in experiment [22], in experiment [23], in [24] and in [25] was no less than 20 µM in each case.

As for MTGVMRGNY, the Kd in [1] (source organism: Yellow fever virus strain Ghana/Asibi/1927) was determined as 0.38 µM.

For the sequence RRLHRLLLM, the Kd in [26] (setting [44]) is no less than 5 µM; in experiment [27] (setting [44]), no more than 0.0001 µM; in [28] (setting [44]) it was no less than 5 µM; in [29] (setting [44]), no less than 5 µM.

RRRRRRAAL: the Kd in experiment [26] (setting [45]) is no less than 5 µM; in experiment [27] (setting [45]), no more than 0.001 µM; in experiment [28] (setting [45]) it was no less than 5 µM; in experiment [29] (setting [45]), no less than 5 µM.

In the case of WLPWIPQLI, the Kd in [5] (setting [46]) is no less than 20 µM; in [6] (setting [46]) it was 1.24 µM; in experiment [9] (setting [46]), no less than 20 µM; in experiment [30] (setting [46]) it was no less than 20 µM; in experiment [11] (setting [46]), 3.44 µM; in experiment [31] (setting [46]), no less than 20 µM. For the same sequence, the Kd in [32] (setting [46]) was no less than 20 µM; in [33] (setting [46]), 0.415 µM; in experiment [15] (setting [46]), no less than 20 µM; in experiment [2] (setting [46]), no less than 5 µM; in experiment [17] (setting [46]), no less than 20 µM; in experiment [34] (setting [46]) it was 16 µM. Further, the Kd in experiment [18] (setting [46]) was no less than 20 µM; in experiment [35] (setting [46]), no less than 20 µM; in experiment [36] (setting [46]), no less than 20 µM; in experiment [37], 0.0046 µM.

Take WLWVSSSDM: the Kd in experiment [5] (setting [47]) was no less than 20 µM; in experiment [6] (setting [48]) it was 1 µM; in [38] it was 0.012 µM; in experiment [9] (setting [47]), no less than 20 µM; in [30] (setting [47]) it was no less than 20 µM; in [31] (setting [47]) it was no less than 20 µM. Further, the Kd in experiment [32] (setting [47]) is no less than 20 µM; in experiment [33] (setting [48]) it was 0.114 µM; in experiment [14] (setting [48]), no less than 5 µM; in experiment [2] (setting [48]), 1.37 µM; in experiment [3] (source organism: Yersinia enterocolitica subsp. enterocolitica 8081) it was 0.003 µM; in experiment [17] (setting [48]), no less than 5 µM. For the same sequence, the Kd was 0.0224 µM in experiment [34] (setting [48]); no less than 20 µM in experiment [18] (setting [47]); no less than 20 µM in [35] (setting [47]); no less than 20 µM in experiment [4] (setting [47]); no less than 20 µM in [36] (setting [47]).

In the case of YAAPQLFPV, the values for the Kd in [39], in experiment [40] and in [20] (setting [44]) were 0.065 µM, 0.069 µM and 0.004 µM, respectively.
